The values below are quoted from earlier work in article PMC8790524.

For data set [1], the target named is IL12Rβ1 ECD (Homo sapiens) (UniProt P42701). As to the kind of experiment: ITC.
In data set [2] the target is IL23R ECD (Homo sapiens) (UniProt Q5VWK5). As to the kind of experiment: ITC. (In general: In ITC the heat of successive injections is recorded.)
IL23R ECD (Homo sapiens), sequence (Q5VWK5 24-355): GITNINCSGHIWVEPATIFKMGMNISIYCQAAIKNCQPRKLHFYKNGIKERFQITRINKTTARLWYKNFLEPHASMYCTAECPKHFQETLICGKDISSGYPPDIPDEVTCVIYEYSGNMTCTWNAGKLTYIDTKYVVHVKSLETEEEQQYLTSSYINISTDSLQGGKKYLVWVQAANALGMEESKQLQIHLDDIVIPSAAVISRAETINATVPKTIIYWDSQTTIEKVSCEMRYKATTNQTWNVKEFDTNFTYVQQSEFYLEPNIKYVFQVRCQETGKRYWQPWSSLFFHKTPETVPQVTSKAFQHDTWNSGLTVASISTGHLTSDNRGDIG

IL-23, sequence (Q9NPF7 20-189): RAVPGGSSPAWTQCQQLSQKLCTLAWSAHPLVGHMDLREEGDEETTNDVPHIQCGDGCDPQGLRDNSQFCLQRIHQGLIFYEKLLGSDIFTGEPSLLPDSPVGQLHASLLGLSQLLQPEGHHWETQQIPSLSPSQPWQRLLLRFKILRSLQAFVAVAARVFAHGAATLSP
IL-23, sequence (P29460 23-328, further chain): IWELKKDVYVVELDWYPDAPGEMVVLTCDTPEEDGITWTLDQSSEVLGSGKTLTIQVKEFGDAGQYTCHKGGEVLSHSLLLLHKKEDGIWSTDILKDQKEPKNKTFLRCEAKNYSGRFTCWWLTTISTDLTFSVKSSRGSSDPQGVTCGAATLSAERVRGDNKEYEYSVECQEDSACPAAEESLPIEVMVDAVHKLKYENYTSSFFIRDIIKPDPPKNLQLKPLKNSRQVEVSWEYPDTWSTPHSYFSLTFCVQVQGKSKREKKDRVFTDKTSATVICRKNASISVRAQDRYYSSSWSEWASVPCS

IL-23 (from UniProt Q9NPF7): the Kd in data set [1] is 2 µM; in data set [2] it was 0.044 µM.

As usually defined, the Kd is the equilibrium constant for the complex coming apart.
